Source: patent US20150017230A1 (ACADEMIA SINICA, published 2015)
Residue numbers refer to the chain shown, from its start. Values belong to the binder of their own block, whether it stands above or below them.

Experiments:
[1] = molecular target: T1, human epithelial cell adhesion molecule (EpCAM), endogenous in SAS and other cancer cells (human, UniProt P16422 24-314); test: cellular ELISA on SAS cells, OD490nm
T1 construct: also called TACSTD1; epithelial specific antigen (ESA)
T1 sequence: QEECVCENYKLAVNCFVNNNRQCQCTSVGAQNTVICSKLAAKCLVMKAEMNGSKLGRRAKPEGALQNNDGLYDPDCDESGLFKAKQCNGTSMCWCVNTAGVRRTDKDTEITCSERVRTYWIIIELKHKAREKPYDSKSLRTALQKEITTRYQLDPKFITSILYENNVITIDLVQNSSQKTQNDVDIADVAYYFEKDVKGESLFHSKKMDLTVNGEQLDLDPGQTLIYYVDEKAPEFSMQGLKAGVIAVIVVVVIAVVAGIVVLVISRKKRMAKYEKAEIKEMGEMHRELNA

[2] = molecular target: T2, EpCAM antigen immobilized on CM5 sensor chip (human, UniProt P16422 24-265, limits assumed); test: SPR (BIAcore T100), EpCAM antigen immobilized on CM5 chip, mAb injected, 1:1 global fit
T2 sequence: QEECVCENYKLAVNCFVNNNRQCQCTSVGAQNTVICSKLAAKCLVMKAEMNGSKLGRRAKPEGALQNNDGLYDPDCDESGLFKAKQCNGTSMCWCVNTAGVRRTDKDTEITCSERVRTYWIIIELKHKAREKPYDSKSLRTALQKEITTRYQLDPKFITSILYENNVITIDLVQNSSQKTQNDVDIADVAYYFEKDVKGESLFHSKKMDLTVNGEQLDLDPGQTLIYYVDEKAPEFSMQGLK
Description: (§1) The affinity of murine and humanized antibodies was performed by surface plasmon resonance (BIAcore T100, Biacore, Inc). EpCAM antigen was immobilized on a Series S Sensor Chip CM5 (Biacore, Inc) and injected at a flow rate of 10 μl/min. The mAbs were diluted in HBS-EP⁺ buffer (Biacore, Inc) and injected at a flow rate of 50 μl/min for 1.5 min, and were allowed to dissociate over 5 min. […] The data were analyzed by the BIAevaluation software with a global fit 1:1 binding model.

[3] = molecular target: T2, EpCAM antigen immobilized on CM5 sensor …; test: SPR (BIAcore), EpCAM antigen immobilized on CM5 chip, mAb injected
Description: as §1

EC50 (read off the curve) [1]: ~0.01 µg/mL
Kd [2]: 0.349 nM
koff [3]: 0.00014 s⁻¹
kon [3]: 401000 M⁻¹ s⁻¹
B1: EpAb2-6 (antibody, V domains shown)
VH: EVQLVESGPELKKPGETVKISCKASGYTFTDYSMHWVKQAPGKGLKWMGWINTETGEPTFADDFKGRFAFSLETSARTTYLQINNLKNEDTATYFCARTAVYWGQGTSLTVSS
VL: DIQLTQSPSSLSASLGERVSLTCRASQEISVSLSWLQQKPDGTIKRLIYATSTLDSGVPKRFSGSRSGSDYSLTISSLESEDFADYYCLQYASYPWTFGGGTKLEIKR
notes: Mouse hybridoma monoclonal IgG; also called mEpAb2-6; murine EpAb2-6

EC50 (read off the curve) [1]: ~0.02 µg/mL
Kd [2]: 0.677 nM
koff [3]: 0.000254 s⁻¹
kon [3]: 376000 M⁻¹ s⁻¹
B2: humanized EpAb2-6 (antibody, V domains shown)
VH: VKLQESGPELKKPGETVKISCKASGYTFTDYSMHWVKQAPGKGLKWMGWINTETGEPTYADDFKGRFAFSLETSASTAYLQINNLKNEDTATYFCARTAVYWGQGTTVTVSS
VL: B1 VL with L4M, K39E, A84V
notes: CDRs of EpAb2-6 grafted onto a human IgG1 backbone; also called hEpAb2-6

Kd [3]: 0.00123 nM
koff [3]: 3.52e-07 s⁻¹
kon [3]: 286000 M⁻¹ s⁻¹
B3: EpAb4-1 (antibody, V domains shown)
VH: QIQLVQSGPELKKPGETVKISCKASGYTFTNYGMNWVKQAPGKGLKWMGWINTYTGEPTYGDDFKGRFAFSLETSASTAYLQINNLKNEDTATYFCARFGRSVDFWGQGTSVTVSS
VL: DIVMTQAAFSNPVTLGTSASISCRSSKSLLHSNGITYLYWYLQKPGQSPQLLIYHMSNLASGVPDRFSSSGSGTDFTLRISRVEAEDVGIYYCAQNLENPRTFGGGTKLEIK
